In PMC9330073, “Cargo Recognition Mechanisms of Yeast Myo2 Revealed by AlphaFold2-Powered Protein Complex Prediction” (Biomolecules, 2022):

Columns and labels:
[1] = molecular target: T1, Myo2-GTD (globular tail domain of Myo2) (Saccharomyces cerevisiae (strain S288c), UniProt P19524 1152-1574); assay: ITC
T1 chain: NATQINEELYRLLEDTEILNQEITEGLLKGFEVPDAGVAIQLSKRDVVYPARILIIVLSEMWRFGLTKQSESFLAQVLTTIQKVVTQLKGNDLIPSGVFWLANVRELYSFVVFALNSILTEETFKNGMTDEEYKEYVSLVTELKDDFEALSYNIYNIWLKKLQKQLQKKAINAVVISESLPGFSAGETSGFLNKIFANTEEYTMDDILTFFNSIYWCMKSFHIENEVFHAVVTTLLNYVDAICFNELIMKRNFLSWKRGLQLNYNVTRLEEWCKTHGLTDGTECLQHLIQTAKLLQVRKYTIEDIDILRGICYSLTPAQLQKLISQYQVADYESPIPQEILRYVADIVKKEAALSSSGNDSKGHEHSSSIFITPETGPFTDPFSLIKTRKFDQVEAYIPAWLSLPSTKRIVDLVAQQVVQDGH

[2] = molecular target: T2, Myo2-GTD Y1303A (Saccharomyces cerevisiae); assay: ITC
T2 chain: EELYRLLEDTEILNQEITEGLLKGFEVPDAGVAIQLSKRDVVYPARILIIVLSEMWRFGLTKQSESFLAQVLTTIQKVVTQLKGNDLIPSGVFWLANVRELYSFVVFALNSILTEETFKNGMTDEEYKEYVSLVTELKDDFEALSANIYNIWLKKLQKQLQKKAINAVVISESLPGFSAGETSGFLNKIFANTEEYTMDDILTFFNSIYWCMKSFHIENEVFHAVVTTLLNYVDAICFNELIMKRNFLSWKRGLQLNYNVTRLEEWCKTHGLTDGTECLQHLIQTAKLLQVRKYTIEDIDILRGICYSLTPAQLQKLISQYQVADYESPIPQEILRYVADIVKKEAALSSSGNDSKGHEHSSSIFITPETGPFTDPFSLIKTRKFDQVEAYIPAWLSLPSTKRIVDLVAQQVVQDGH

[3] = molecular target: T3, Myo2-GTD D1297N (Saccharomyces cerevisiae); assay: ITC
T3 chain: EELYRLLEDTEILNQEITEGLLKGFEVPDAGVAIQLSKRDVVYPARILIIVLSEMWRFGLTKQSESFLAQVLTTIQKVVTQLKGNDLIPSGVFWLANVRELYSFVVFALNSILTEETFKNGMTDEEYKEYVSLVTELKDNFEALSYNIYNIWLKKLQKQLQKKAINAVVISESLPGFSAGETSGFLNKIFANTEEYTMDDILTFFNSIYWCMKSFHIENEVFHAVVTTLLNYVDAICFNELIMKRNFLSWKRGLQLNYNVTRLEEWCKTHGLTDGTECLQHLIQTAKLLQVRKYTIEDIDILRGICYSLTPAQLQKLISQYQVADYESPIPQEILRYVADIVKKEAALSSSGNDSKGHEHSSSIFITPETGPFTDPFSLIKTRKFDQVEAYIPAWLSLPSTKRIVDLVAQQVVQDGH

[4] = molecular target: T4, Myo2-GTD (globular tail domain of Myo2) (Saccharomyces cerevisiae (strain S288c), UniProt P19524 1152-1574); assay: ITC; 500 μM Myo2-GTD in the syringe titrated into 50 μM Kar9-MIS or Pea2-MIS in the cell, 25 °C; one-site binding model; conditions: both partners purified
T4 construct: Myo2 (class V myosin), S. cerevisiae, C-terminal globular tail domain (GTD); Named Trx-Myo2-GTD in the light scattering experiment; also called Trx-Myo2-GTD; source: E. coli BL21(DE3), purified (Ni2+-NTA, size exclusion chromatography); not shown: Trx, N-terminal, kept
T4 sequence (looked up): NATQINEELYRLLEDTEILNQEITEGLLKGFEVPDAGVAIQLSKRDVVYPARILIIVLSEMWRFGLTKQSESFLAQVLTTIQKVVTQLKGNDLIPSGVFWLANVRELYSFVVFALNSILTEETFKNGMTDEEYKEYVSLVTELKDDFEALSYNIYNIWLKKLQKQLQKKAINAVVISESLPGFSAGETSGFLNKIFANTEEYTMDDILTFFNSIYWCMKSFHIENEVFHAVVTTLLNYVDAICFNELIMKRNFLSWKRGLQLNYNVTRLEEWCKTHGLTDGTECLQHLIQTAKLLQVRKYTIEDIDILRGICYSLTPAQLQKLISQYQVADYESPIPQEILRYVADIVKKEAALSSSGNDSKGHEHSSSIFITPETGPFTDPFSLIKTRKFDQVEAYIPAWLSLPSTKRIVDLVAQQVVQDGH

[5] = molecular target: T5, Myo2-GTD L1331S (Saccharomyces cerevisiae (strain S288c)); assay: ITC
T5 chain: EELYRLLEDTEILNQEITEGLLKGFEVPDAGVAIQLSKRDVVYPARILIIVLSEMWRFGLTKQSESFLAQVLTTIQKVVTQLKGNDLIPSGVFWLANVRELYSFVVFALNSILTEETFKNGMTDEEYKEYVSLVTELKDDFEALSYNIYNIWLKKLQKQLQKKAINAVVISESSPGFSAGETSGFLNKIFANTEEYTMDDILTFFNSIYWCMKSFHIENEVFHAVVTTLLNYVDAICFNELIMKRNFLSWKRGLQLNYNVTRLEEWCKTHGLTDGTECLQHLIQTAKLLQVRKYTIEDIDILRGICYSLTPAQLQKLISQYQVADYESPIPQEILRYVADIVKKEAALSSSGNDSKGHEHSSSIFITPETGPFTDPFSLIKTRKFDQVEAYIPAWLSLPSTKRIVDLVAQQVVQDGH

[6] = molecular target: T6, Myo2-GTD W1407A (Saccharomyces cerevisiae (strain S288c)); assay: ITC
T6 chain: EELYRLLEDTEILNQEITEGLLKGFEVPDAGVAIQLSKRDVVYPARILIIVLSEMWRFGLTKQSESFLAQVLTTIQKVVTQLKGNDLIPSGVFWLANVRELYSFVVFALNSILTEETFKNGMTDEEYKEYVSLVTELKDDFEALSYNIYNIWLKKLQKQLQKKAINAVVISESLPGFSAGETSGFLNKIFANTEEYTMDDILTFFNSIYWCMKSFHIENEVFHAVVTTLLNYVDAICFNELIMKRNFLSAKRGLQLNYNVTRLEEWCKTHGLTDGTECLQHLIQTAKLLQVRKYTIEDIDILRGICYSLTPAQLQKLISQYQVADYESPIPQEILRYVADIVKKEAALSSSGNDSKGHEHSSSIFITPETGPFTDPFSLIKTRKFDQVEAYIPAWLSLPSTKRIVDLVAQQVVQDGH

[7] = molecular target: T4, Myo2-GTD (globular tail domain of Myo2); assay: ITC; 200 μM Vac17-MIS in the syringe titrated into 20 μM Myo2-GTD in the cell, 25 °C; one-site binding model; conditions: both partners purified

B1: GST-Pea2-CC1 (GST-tagged Pea2-CC1; dimer) (domain or fragment)
chain: AIQEEDSSKKLEELETAFSDLQLAHNFLTKQFENDRAEYVQDIEKLTRTNRELQDKLLNNHSNLSKTEKKLHELEQENKELEKANNKLNSSRH
modifications: N-terminal GST (pGEX-4T-1) left out; GST drives the dimerization
[1]
  Kd: 11 µM
[2]
  Kd: 11 µM
[3]
  Kd: 10 µM

B2: Pea2-CC1 (Trx-tagged; monomer) (domain or fragment, Saccharomyces cerevisiae (strain S288c), UniProt P40091 235-327, looked up)
chain: AIQEEDSSKKLEELETAFSDLQLAHNFLTKQFENDRAEYVQDIEKLTRTNRELQDKLLNNHSNLSKTEKKLHELEQENKELEKANNKLNSSRH
notes: Pea2 (polarisome subunit), S. cerevisiae, conserved coiled coil CC1 containing residues 235-327; Named Trx-tagged in the light scattering; also called Trx-tagged Pea2-CC1; Pea2-CC1 monomer; source: E. coli BL21(DE3), purified (Ni2+-NTA, size exclusion chromatography); not shown: Trx, N-terminal, kept
[4]
  Kd: ~50 µM

B3: Vac17-MIS (Myo2-interacting sequence of Vac17) (domain or fragment, Saccharomyces cerevisiae (strain S288c), UniProt P25591 112-157, looked up)
chain: PNEAPNDSPQSQSTRSSLGSFQPRPLKIIERQRLCMVTPSKPPKKS
notes: Vac17 (vacuole-related protein 17), S. cerevisiae, region containing residues 112-157 (MIS); Named Trx-tagged in the light scattering; also called Trx-Vas17-MIS; Vac17-MIS wild-type; source: E. coli BL21(DE3), purified (Ni2+-NTA, size exclusion chromatography); not shown: Trx, N-terminal, kept
[5]
  Kd: 0.41 µM
[6]
  Kd: 0.45 µM
[7]
  Kd: ~0.3 µM
